Assay results taken from publication PMC10440475 (Heliyon, 2023).
Several values for one entry are separate records, joined by “and”; a condition that tells them apart may be missing. Equal entries are not always repeated.

Biological target: the molecule itself
Assay: PFO-PAGE

B1: ORF3aΔN-eGFP (N-terminus truncated SARS-CoV-2 ORF3a with C-terminal eGFP) (domain or fragment)
chain: PFGWLIVGVALLAVFQSASKIITLKKRWQLALSKGVHFVCNLLLLFVTVYSHLLLVAAGLEAPFLYLYALVYFLQSINFVRIIMRLWLCWKCRSKNPLLYDANYFLCWHTNCYDYCIPYNSVTSSIVITSGDGTTSPISEHDYQIGGYTEKWESGVKDCVVLHSYFTSDYYQLYSTQLSTDTGVEHVTFFIYNKIVDEPEEHVQIHTIDGSSGVVNPVMEPIYDEPTTTTSVPL
- stoichiometry N: 5 and 2 and 3 and 4
